Measured values: patent US20250136692A1

Biological target: hPD-1-HIS (human) (UniProt Q15116)
Test: ELISA, plate-coated PD-1 protein, anti-human IgG detection

Sequence of hPD-1-HIS (human) (Q15116 25-167 limits assumed): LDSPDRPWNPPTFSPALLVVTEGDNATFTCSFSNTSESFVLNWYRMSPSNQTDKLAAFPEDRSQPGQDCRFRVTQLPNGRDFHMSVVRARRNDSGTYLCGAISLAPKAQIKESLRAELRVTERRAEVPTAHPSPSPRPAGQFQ

hPD-1-HIS Binding (OD 450) | Binder
0.874 | 4G9-1 (antibody, human IgG1, kappa, V domains shown) VH: QVQLVQSGAEVKKPGASVKVSCKASGYTFTTYGINWVRQATGQGLEWMGWINTYSGVPGYAQKFQGRVTMTLNTSISTAYMELSSLRSEDTAVYYCARGGRGIAYWGQGTLVTVSS VL: DIQLTQSPSSLSASVGDRVTITCRASQGISNSLAWFQQKPGKVPKRLIYAASNLQSGVPSRFSGSGSGTEFTLTISSLQPEDFATYYCQQSYSTPYTFGQGTKLEIKR
0.287 | 4G9-10 (antibody, human IgG1, kappa, V domains shown) VH: QVQLVQSGAEVKKPGASVKVSCKASGYTFTTYGINWVRQATGQGLEWMGWINTYSGVPGYAQKFQGRVTMTLNTSISTAYMELSSLRSEDTAVYYCARGSKGDAYWGQGTLVTVSS VL: DIVMTQSPSSLSASVGDRVTITCRASQSISTWLAWFQQKPGKAPKLLIYKASSLKSGVPSRFSGSGSGTEFTLTISSLQPDDFATYYCQQSYSTPWTFGQGTKLEIKR
0.31 | 4G9-9 (antibody, human IgG1, kappa, V domains shown) VH: QVQLVQSGAEVKKPGASVKVSCKASGYTFTTYGINWVRQATGQGLKWMGWINTYSGVPGYAQKFQGRVTMTLNTSISTAYMELSSLRSEDTAVYYCARGVHGVSYWGQGTLVTVSS VL: EIVMTQSPATLSVSPGERATLSCRASQSIGTSLHWYQQKPGGAPRLLIKYASESITGIPARFSGSGSGTEFTLTISSLQSEDFAVYYCQQSNSWPYTFGQGTKLEIKR
0.451 | 4G9-3 (antibody, human IgG1, kappa, V domains shown) VH: QVQLVQSGAEVKKPGASVKVSCKASGYTFTTYGINWVRQATGQGLEWMGWINTYSGVPGYAQKFQGRVTMTLNTSISTAYMELSSLRSEDTAVYYCARGGRESAYWGQGTLVTVSS VL: EIVMTQSPATLSVSPGERATLSCRASQSIGTSLHWYQQKPGGAPRLLIKYASESITGIPARFSGSGSGTEFTLTISSLQSEDFAVYYCQQSNSWPYTFGQGTKLEIKR
0.346 | 4G9-8 (antibody, human IgG1, kappa, V domains shown) VH: QVQLVQSGAEVKKPGASVKVSCKASGYTFTTYGINWVRQATGQGLEWMGWINTYSGVPGYAQKFQGRVTMTLNTSISTAYMELSSLRSEDTAVYYCARVERGDAYWGQGTLVTVSS VL: EIVLTQSPSSLSASVGDRVTITCRASQDIRRDFGWYQQKPGLAPELLIYDASRLRSGVPSRFSGSGSGTLFTFTITNLQPEDFATYYCLQDYDFPRTFGQGTKVDIKR
0.383 | 4G9-5 (antibody, human IgG1, kappa, V domains shown) VH: QVQLVQSGAEVKKPGASVKVSCKASGYTFTTYGINWVRQATGQGLEWMGWINTYSGVPGYAQKFQGRVTMTLNTSISTAYMELSSLRSEDTAVYYCARGVRVFYHWGQGTLVTVSS VL: EIVMTQSPATLSVSPGERATLSCRASQSIGTSLHWYQQKPGGAPRLLIKYASESITGIPARFSGSGSGTEFTLTISSLQSEDFAVYYCQQSNSWPYTFGQGTKLEIKR

Biological target: hPD-1-HIS (human) (UniProt Q15116)
Test: ELISA, plate-coated PD-1 protein, protocol of Example 1

hPD-1-HIS Binding (OD 450) | Binder
0.791 | 5C2-1 (antibody, human IgG1, kappa, V domains shown) VH: QVQLVQSGAEVKKPGASVKVSCKASGYTFNSYWMHWVRQAPGQGLEWMGRIHPRGIHTNYNQKFKGRVTLTVDTSTSTAYMELSSLRSEDTAVYYCAPSSSYAWAFAHWGQGTLVTVSS VL: DIQMTQSPSSLSASVGDRVTITCRASQDVSTALAWYQQKPGKAPKLLIYWASTRHSGVPDRFSGSGSGTDFTLTISSLQPEDFATYYCQQHYRSPGTFGGGTKVEIKR
0.262 | 5C2-8 (antibody, human IgG1, kappa, V domains shown) VH: QVQLVQSGAEVKKPGASVKVSCKASGYTFNSYLMHWVRQAPGMGLEWMGRIRPNYSDTNYNQKFKGRVTLTVDTSTSTAYMELSSLRSEDTAVYYCAPYGNNASGFSYWGQGTLVTVSS VL: DIQMTQSPSSLSASVGDRVTITCRASQDVSTALAWYQQKPGKAPKLLIYWASTRHSGVPDRFSGSGSGTDFTLTISSLQPEDFATYYCQQHYRSPWTFGGGTKVEIKR
0.264 | 5C2-7 (antibody, human IgG1, kappa, V domains shown) VH: QVQLVQSGAEVKKPGASVKVSCKASGYTFTSYWMHWVRQAPGMGLEWMGRIHPIYRDTNYNQKFKGRVTLTVDTSTSTAYMELSSLRSEDTAVYYCAPYVNYGDGFAYWGQGTLVTVSS VL: DIQMTQSPSTLSASVGDRVTITCRASQDVSTALAWYQQKPGKAPKLLIYWASTRHIGVPDRFSGSGSGTDFTLTISSLQPEDFATYYCHQDYITPRTFGGGTKVEIKR
0.286 | 5C2-5 (antibody, human IgG1, kappa, V domains shown) VH: QVQLVQSGAEVKKPGASVKVSCKASGYTFGIYWMHWVRQAPGQGLEWMGRILPSNGYTNYNQKFKGRVTLTVDTSTSTAYMELSSLRSEDTAVYYCAPYGIYTRDFSHWGQGTLVTVSS VL: DIQMTQSPSSLSASVGDRVTITCRASQDVSTALAWYQQKPGKAPKLLIYWASTRHSGVPDRFSGSGSGTDFTLTISSLQPEDFATYYCQQRDTTPRTFGGGTKVEIKR
0.312 | 5C2-4 (antibody, human IgG1, kappa, V domains shown) VH: QVQLVQSGAEVKKPGASVKVSCKASGYTFTRYWMHWVRQAPGQGLEWMGRIHPTDSVTNYNQKFKGRVTLTVDTSTSTAYMELSSLRSEDTAVYYCAPDVNYARAFAHWGQGTLVTVSS VL: DIQMTQSPSSLSASVGDRVTITCRASQDVSTALAWYQQKPGKAPKLLIYWASTRHSGVPDRFSGSGSGTDFTLTISSLQPEDFATYYCQQHYGSPWTFGGGTKVEIKR
0.395 | 5C2-2 (antibody, human IgG1, kappa, V domains shown) VH: QVQLVQSGAEVKKPGASVKVSCKASGQTFTSYRMHWVRQAPGQGLEWMGRILPIRSDTNYNQKFKGRVTLTVDTSTSTAYMELSSLRSEDTAVYYCARDAGYGSLFAAWGQGTLVTVSS VL: DIQMTQSPSSLSASVGDRVTITCRASQDVSTALAWYQQKPGKAPKLLIYWASTRHSGVPDRFSGSGSGTDFTLTISSLQPEDFATYYCQQHDSSPGTFGGGTKVEIKR
0.255 | 5C2-9 (antibody, human IgG1, kappa, V domains shown) VH: QVQLVQSGAEVKKPGASVKVSCKASGQTFTNYLMHWVRQAPGQGLEWMGRIPLSDRDTNYNQKFKGRVTLTVDTSTSTAYMELSSLRSEDTAVYYCAPYGRSASGFSSWGQGTLVTVSS VL: DIQMTQSPSSLSASVGDRVTITCRASQDVSTALAWYQQKPGKAPKLLIYWASTRHSGVPDRFSGSGSGTDFTLTISSLQPEDFATYYCQQGSSTPLTFGGGTKVEIKR
0.345 | 5C2-3 (antibody, human IgG1, kappa, V domains shown) VH: QVQLVQSGAEVKKPGASVKVSCKASGYTFTSYWMHWVRQAPGQGLEWMGRIHPSDSDTNYNQKFKGRVTLTVDTSTSTAYMELSSLRSEDTAVYYCAPKGNYVVRFAYWGQGTLVTVSS VL: DIVMTQSPSSLSASVGDRVTITCRASQGIRNDLGWYQQKPGKAPKLLIYAASSLQSGVPSRFSGSGSDTDFTLTISSLQPEDFATYYCLQDYNYPWTFGQGTKVDIKR
0.267 | 5C2-6 (antibody, human IgG1, kappa, V domains shown) VH: QVQLVQSGAEVKKPGASVKVSCKASGYTFTSYWMHWVRQAPGQGLEWMGRIHPSDSDTNYNQKFKGRVTLTVDTSTSTAYMELSSLRSEDTAVYYCAPYVDLESGFAYWGQGTLVTVSS VL: DIAMTQTPSSLSASIGDRVTIACRASQGISSALAWYQQKPGRTPKLLIFDASTLQSGVPSRFSGSGSGTDFTLTISSLQPEDFATYYCQQFNTYSSVTFGQGTRLEIKR
